The test concerns the target H3K4Me3 peptide. Description: ITC. (In general: In ITC the heat of successive injections is recorded.)

Our source for the Kd values is paper PMC3520067.

As a reminder, the Kd is the concentration at which binding is half-saturated. A low value points to a tighter complex.

As for MORC3 CW domain (domain or fragment), the Kd turned out to be 600 nM. In other words, the sub-micromolar range.
The substance “recombinant SPIN1 (from UniProt Q9Y657 1-262) (natural protein)” showed a Kd of 1100 nM.
